The values that follow are results of earlier work, collected in paper PMC12874384.

Broadly, the pKa is the pH at which an ionisable group is half protonated.

The target of series [1] is Glu165 (UniProt position 165, VVVAYEPVWAI). Kind of series: kinetics (competitive inhibition, pH dependence of Ki). Conditions: enzyme•PGA trianion complex (closed, inhibitor-bound).
Series [2] concerns Glu165. The description is as above. The note with it: enzyme•PGA trianion complex (closed, inhibitor-bound).
In series [3] the target is Glu165 (UniProt position 165, VVLAYEPVWAI). Described as above. Conditions: enzyme•PGA trianion complex (closed, inhibitor-bound).
The target in the next series is Asp260 (UniProt position 260, SCGVADLITTC). Kind of series: kinetics (pH-rate profile). The note with it: kcat/Km profile for reaction of DHAP dianion in the presence of NADH.
In series [4] the target is T1, Lys204 (UniProt position 204, ICGALKNVVAV). Briefly: kinetics (pH-rate profile). Conditions: kcat/Km profile for reaction of DHAP dianion in the presence of NADH.
For series [5], the target named is T1, Lys204. Briefly: kinetics (pH-rate profile of chemical rescue). The note with it: K120A variant with EtNH3+ activator, DHAP and NADH.

As to “yTIM Y208F variant (Saccharomyces cerevisiae; Y208F)”, the pKa in the series with Glu165 [1] was 6.3.

Turning to “TbbTIM I170A variant (I172A in TbbTIM numbering) (Trypanosoma brucei brucei; I170A)”, in the series on Glu165 [2], the pKa is reported as 7.7.

With “Triosephosphate isomerase, yeast (yTIM) (Saccharomyces cerevisiae)”, in the series with Glu165 [1], the pKa result was “≈ 11”.

For “yTIM S211A variant (Saccharomyces cerevisiae; S211A)”, the pKa with Glu165 [1] is 8.2.

As to “Triosephosphate isomerase, chicken (cTIM) (Gallus gallus)”, the pKa result with Glu165 [3] was “≈ 11”.

As to “TbbTIM P166A/I170A double variant (P168A/I172A in TbbTIM numbering) (Trypanosoma brucei brucei; P166A;I170A)”, in the series on Glu165 [2], the pKa is recorded as 7.8.

For “Triosephosphate isomerase, Trypanosoma brucei brucei (TbbTIM) (Trypanosoma brucei brucei)”, in the series on Glu165 [2], the pKa entry is “≈ 11”.

On to “TbbTIM P166A variant (P168A in TbbTIM numbering) (Trypanosoma brucei brucei; P166A)”, for which the pKa with Glu165 [2] is given as 9.3.

Regarding “Glycerol 3-phosphate dehydrogenase [NAD+], human liver (hlGPDH) (Homo sapiens)”, the pKa with Asp260 was 4.4; with Lys204 [4], 7.6.

“cTIM loop 7 replacement variant (L7RM, 208-TGAG-211) (Gallus gallus; Y208T;G210A;S211G)”: in the series with Glu165 [3], the pKa was 6.7.

Turning to “hlGPDH K120A variant (Homo sapiens; K120A)”, the pKa in the series with Asp260 is recorded as 5.0; with Lys204 [4] it was 7.6; in the series with Lys204 [5] it was 7.7.
